B1: Tislelizumab: marketed PD-1 monoclonal antibody (antibody, chains of the INN, looked up)
heavy: QVQLQESGPGLVKPSETLSLTCTVSGFSLTSYGVHWIRQPPGKGLEWIGVIYADGSTNYNPSLKSRVTISKDTSKNQVSLKLSSVTAADTAVYYCARAYGNYWYIDVWGQGTTVTVSSASTKGPSVFPLAPCSRSTSESTAALGCLVKDYFPEPVTVSWNSGALTSGVHTFPAVLQSSGLYSLSSVVTVPSSSLGTKTYTCNVDHKPSNTKVDKRVESKYGPPCPPCPAPPVAGGPSVFLFPPKPKDTLMISRTPEVTCVVVAVSQEDPEVQFNWYVDGVEVHNAKTKPREEQFNSTYRVVSVLTVVHQDWLNGKEYKCKVSNKGLPSSIEKTISKAKGQPREPQVYTLPPSQEEMTKNQVSLTCLVKGFYPSDIAVEWESNGQPENNYKTTPPVLDSDGSFFLYSKLTVDKSRWQEGNVFSCSVMHEALHNHYTQKSLSLSLG
light: DIVMTQSPDSLAVSLGERATINCKSSESVSNDVAWYQQKPGQPPKLLINYAFHRFTGVPDRFSGSGYGTDFTLTISSLQAEDVAVYYCHQAYSSPYTFGQGTKLEIKRTVAAPSVFIFPPSDEQLKSGTASVVCLLNNFYPREAKVQWKVDNALQSGNSQESVTEQDSKDSTYSLSSTLTLSKADYEKHKVYACEVTHQGLSSPVTKSFNRGEC
B2: Camrelizumab: marketed PD-1 monoclonal antibody (antibody, chains of the INN, looked up, V domains shown)
VH: EVQLVESGGGLVQPGGSLRLSCAASGFTFSSYMMSWVRQAPGKGLEWVATISGGGANTYYPDSVKGRFTISRDNAKNSLYLQMNSLRAEDTAVYYCARQLYYFDYWGQGTTVTVSS
VL: DIQMTQSPSSLSASVGDRVTITCLASQTIGTWLTWYQQKPGKAPKLLIYTATSLADGVPSRFSGSGSGTDFTLTISSLQPEDFATYYCQQVYSIPWTFGGGTKVEIK

Tested on: colorectal carcinoma MC38
Assay: Example 7.2.1: MC38 subcutaneous xenograft, marketed PD-1 inhibitors and 2′,3′-cGAMP
Type: in vivo, mouse
Conditions: intratumor injection; PD-1 antibody 10 mg/kg, 2′,3′-cGAMP 1 mg/kg; every other day, 3 times
Description: Tumor cells were cultured and passaged, cells were collected at the logarithmic phase, and formulated into a concentration of (1.0×10^7) per milliliter of cell suspension with 0.1 ml (with a cell number of 1.0×10^6) being injected into the right flank of the mice, the tumor grew to a diameter of about 5 mm within about 10 days, and the model was successfully established, they were randomly divided into 8 groups with 8 mice per group.
Trend of changes in body weight and tumor volume of mice, survival rate of mice, and inhibitory rate of anatomical tumor weight.
Drug interaction coefficient: CDI(CI)=AB/A*B. AB is the ratio of the combination group of two drugs to the control group, as calculated based on the anatomical tumor weight. A or B is the ratio of single drug group to control group.
After successfully establishing a subcutaneous xenograft tumor model of colorectal carcinoma MC38 in mice, they were randomly grouped with 6-8 mice per group and administered once every two days, a total of 3 times.

Molecule	IRTW % (tumor weight inhibitory rate)	Tumor Weight
B1	61.4%	0.59 g
B2	19.6%	1.23 g
